Test results: the DeepSol protein solubility set

Experiment: soluble on expression in E. coli; label from the status in PepcDB or PDB records

Sequence | soluble on expression in E. coli
MLFSKETLKSFAQSKGISNIDDDALRVLSQDLEYRIKEVCQEGSKFMVGSKRTKLSIDDINYALTSRNVDPLFGYDPQESLVFRGLPSNVYYVPDEEIDLEEYLDRPLPKVPLRVSIQSHWLAIEGVQPQIPYNPILLEKPVAKKDTLGTYQEEAELKSQNKHMLTKELGMYFDKVIQAMESDEQTAMECLHNESGIQQLVPYFVHHFNEQIVKNIKNKEKLMTVVMVYSSLLKNKYIFVDPYLHQILPSLITCVIGKNVDDDVRKVAADVVKYVFSNFSSSYKTLAPRIINTLSKAWLDREKTESTQYGALFCLSILSKHVVETVIKPKADYYVREINNPRVVGLLKDILQSNGL | soluble
MLGIDLGSNTLRAVQMDEKLNKLKEYEFVIGAAKNLNQSGEISKEAIQRLKNTLSILAKEQDLSKARAVATAAFRKASNTNEIFAHLKKEFGIDFKLIDAKSEAKISVLGMQSGLRRLKIWGEFAYCDLGGASCELSFGKSFKSFDFGIISFYEKNYHSYYKSCISYKKLIKKYPKFIINIKDKKLKIHFLIANPYLKHLAFRAFDEVAMIKKELRSLGAKTVVLNSGVPTTLSALKQNISYEKYEATKVNGKKLCHKDFLNYAIKLFHMEEKKAIKEVGTMRKNYLSAGCLLFYALFDKHKLLVIDEGLREGVCLASMKNIKF | not soluble
MLGPPSREKWSSDFPRWFDWVIETAEVYDYGRYPVKGMGVWMPYGFQIRRRVLEVVRGLLDSTGHEEVLFPLLIPEHLLRRESEHIRGFEGEVYWVTHGGREELDVKLALRPTSETSITYMETFWIKSYRQLPKKYYQVVSIFRYETKATRPMIRLREVTTFKEAHTVHESFEDAERQVLEAIEVYKAIFDRLLIPYVISKRPEWDKFAGALYTIAFDTIMPDGRALQIGTVHHLGQSFTRAFDFRIQMRDERLDHPWQTSYGVSDRVVASLIAVHGDDRGLVIPPSVAPIQVVVIPITPGDEEKRGKVLTYTAKAAEALEKAGLRVHVDDREWERPGAKFYYWEAKGVPIRVEIGLREAEQDTLTIARRDTLEKTEVPLGEAGNRIRELMAQIESSMRERAKSFFGERLLRTESLEEARDWVEGRRGIAEIPWCGRESCGLEMEERVNGKVLGTPWPEEPVEEGKRCPLCGRPAVAWIRLAKTY | soluble
MLGVVPGIGESIQAYKVAKAAKNLQGMKKALDKAATVATAQGYVSKTKIKIGQTELRVTAATDKQLLKAIGEGRTRQVK | not soluble
MLHEIPKSEILKELKRIGAKRVLIQSPEGLRREAEELAGFLEENNIEVFLHGEINYGACDPADREAKLVGCDALIHLGHSYMKLPLEVPTIFVPAFARVSVVEALKENIGEIKKLGRKIIVTTTAQHIHQLKEAKEFLESEGFEVSIGRGDSRISWPGQVLGCNYSVAKVRGEGILFIGSGIFHPLGLAVATRKKVLAIDPYTKAFSWIDPERFIRKRWAQIAKAMDAKKFGVIVSIKKGQLRLAEAKRIVKLLKKHGREARLIVMNDVNYHKLEGFPFEAYVVVACPRVPLDDYGAWRKPVLTPKEVEILLGLREEYEFDEILGGPRESDEPFGISIHSTRLEHHHHHH | not soluble
MLIDDIDFADLYLQQLKLAHRTEKTPDHWDQRAEKMAENCASPTDSYLQQLIAKIDLQGAQTLFDMGCGPGTVSLALADKLTTVYGVDYSQGMLNVAARRAAALKADNVHWIQRAWEEDWSDLPRCDIAVASRSTLVADMRHAMSKLNNQARLRVYTTHLVSTSFVSPAIQRAAGREVIELPNYIFALNVLYQMGIYAHVDFIRGQNCQQDNSTWERFEQNVSWSLGALNDDERERLYHWYQQQDARALAPASRDWALIWWDSVPQEAL | not soluble
MLIKGLSDTLLENPLWQKTYLRSFMQFYSTNSLSWGQLSYEEGEIRNLHYGLIHSFQTSEIDTDSLPRILPANVPKQYTLCQAGDVAFADASEDTDEIGKAVEFIRTHKASVICGLHTIHGRDIKCKTLLGFKRVAFNSHYFHDQIKRLAQGTKVFSITSSNLSSCYIYIPDIVMQKSIVVLFEAYEEQLITNKRLLEQYEKQKRYLLQQMFILEHHHHHH | not soluble
MLIPSKLSRPVRLDHTVVRERLLAKLSGANNFRLALVTSPAGYGKTTLVSQWAAGKNELGWYSLDEGDNQQERFASYLIAAIQQATGGHCSTSEAMAQKRQYASLTSLFAQLFIELAQWHRPLYLVIDDYHLITNPVIHDAMRFFLRHQPENFTLVVLSRNLPQLGIANLRVRDQLLEIGSQQLAFNHQEAKQFFDRRLSSPIEAAESSRMCDDVAGWATALQLIALSARQNHTSAHHSARRLAGINASHLSDYLVDEVLDNVDVSTRHFLLKSAILRSMNDALIVRVTGEENGQMRLEEIERQGLFLQRMDDTGEWFSYHPLFGSFLRQRCQWELAAELPEIHRAAAESWMEQGFPSEAIHHALAAGDAQMLRDILLNHAWGLFNHSELALLEESLKALPWESLLENPRLVLLQAWLMQSQHRYSEVNTLLARAEQEIKGVMDGTLHAEFNALRAQVAINDGNPEEAERLAKLALDELPLAWFYSRIVATSVHGEVLHCKGDLSQSLSLMQQTEQMARHHDVWHYALWSLIQQSEIQFAQGFLQAAWETQERAFQLIKEQHLEQLPMHEFLVRIRAQLLWAWARLDEAEASARSGIAVLSTFQPQQQLQCLTLLVQCSLARGDLDNARSQLNRLENLLGNGRYHCDWISNADKVRVIYWQLTGDKKSAANWLRHTPKPAFANNHFLQGQWRNIARAQILLGEFEPAEIVLEELNENARSLRLMSDLNCNLLLLNQLYWQSGRKNDAQRVLLDALQLANRTGFISHFVIEGEAMAQQLRQLIQLNTLPEMEQHRAQRILREINQHHRHKFAHFDEGFVERLLNHPDVPELIRTSPLTQREWQVLGLIYSGYSNEQIAGELAVAATTIKTHIRNLYQKLGVAHRQDAVQHAQQLLKMMGYGV | not soluble
MLISLIVPIYNVEGFLPRCLDSIIKQEYQNLEIVLVNDGSTDQSGLICDQYAEKDERFIVFHKENGGVSSARNVGLNKANGNYIGFVDPDDWIEPNMINKLYELIIQHKADIAMCGYVKEDINGLLISRPVELSTKILNKEDTLNSILNPNDFRGFLCNKLFSVDLFRKKNLYLDEDIHFCEDLLFCCQAILESKQIVYDSTPYYHYIIHNNNASKSNFSFKKLTALNSLDNIINLLNDQKGIELEQYKNYYMHLNISLLMNGIHEDKIRRQDKERLKKNLYKFKINDLTSKFVKFSCVLARLNLNLYYFIWKNAKPSN | not soluble
MLKEVPIKRRQSTKIYVGNVPVGGDAPIAVQSMTNTRTTDIEATIAQIKALERVGADIVRVSVPTMDAAEAFKVIKQQVNVPLVADIHFDYRIALKVAEYGVDCLRINPGNIGNEERIRAVVDCAKDKNIPIRIGVNAGSLERDLQEKYGEPTPQALLESALRHVEILDRFNFDQFKVSVKASDVFLAVESYRLLAKAIKQPIHLGITEAGGARAGSVKSAIGLGLLLSEGIGDTLRVSLAADPVDEVKVGFDILKSLRIRSRGINFVACPTCSRQEIDVIATVNALEQRLEDILTPMDVSIIGCVVNGPGEALVSDLGVTGSNKMSGFYLDGVRQKERFDNDKLIDQLEAKIRAKVAQQHHRIAIEQILEHHHHHH | not soluble
MLKLGVIGTGAISHHFIEAAHTSGEYQLVAIYSRKLETAATFASRYQNIQLFDQLEVFFKSSFDLVYIASPNSLHFAQAKAALSAGKHVILEKPAVSQPQEWFDLIQTAEKNNCFIFEAARNYHEKAFTTIKNFLADKQVLGADFNYAKYSSKMPDLLAGQTPNVFSDRFAGGALMDLGIYPLYAAVRLFGKANDATYHAQQLDNSIDLNGDGILFYPDYQVHIKAGKNITSNLPCEIYTTDGTLTLNTIEHIRSAIFTDHQGNQVQLPIQQAPHTMTEEVAAFAHMIQQPDLNLYQTWLYDAGSVHELLYTMRQTAGIRFEAEK | soluble
MLKNEETEKKLNLNQQRLGTVVAVLKSVNAKKVIDLGCGEGNLLSLLLKDKSFEQITGVDVSYSVLERAKDRLKIDRLPEMQRKRISLFQSSLVYRDKRFSGYDAATVIEVIEHLDENRLQAFEKVLFEFTRPQTVIVSTPNKEYNFHYGNLFEGNLRHRDHRFEWTRKEFQTWAVKVAEKYGYSVRFLQIGEIDDEFGSPTQMGVFTLGAGGHHHHHH | soluble
MLKSLQIPVEKLTSKGIKSAEDRITWVKREIGRLPEKEEVFNAILEALKEELGIEPYWGELTKEELELFEEKKDYFKSDEWIYHVKKAITGDEILYGIYRCPGGTFRVSAKVDPQTKVLQQVIINGDFFINPKRLIYDLEAYLKHTPVQEVEKRIREFFKEREFESVNLTVDDFVEA | soluble
MLKSVQGLWKDFFGIRDDGRKREYGSLDEVRKRSALRSRRKQMRPTGKSVLKRPRKVTDRKTEEKIRTNRRKTPKRRLTKIFQTIRDVFSNDNENMSKMQNVCGDMTRILKKRSQGRPSYMDTDTAKSRILRSDAFKRKISELKYNKQRISELRSGSSDGSSGKDRNQSLYLDREILLQRQIKKRDEKIKALESKLQSLQEALNYSNEKYRILEDLLDSSNIHPSYTKSRRTMSNLARENDEIKPLKIDLSPSPIRRTNSLFTSSPMKTYNRDGNIPEMQPLQENISPACPTPPYRSRETEKEDETLSPISVDFSSYLS | soluble
MLKVEMLSTGDEVLHGQIVDTNAAWLADFFFHQGLPLSRRNTVGDNLDDLVTILRERSQHADVLIVNGGLGPTSDDLSALAAATAKGEGLVLHEAWLKEMERYFHERGRVMAPSNRKQAELPASAEFINNPVGTACGFAVQLNRCLMFFTPGVPSEFKVMVEHEILPRLRERFSLPQPPVCLRLTTFGRSESDLAQSLDTLQLPPGVTMGYRSSMPIIELKLTGPASEQQAMEKLWLDVKRVAGQSVIFEGTEGLPAQISRELQNRQFSLTLSEQFTGGLLALQLSRAGAPLLACEVVPSQEETLAQTAHWITERRANHFAGLALAVSGFENEHLNFALATPDGTLALRVRFSTTRYSLAIRQEVCAMMALNMLRRWLNGQDIASEHGWIEVVESMTLSV | soluble
MLKVEMLSTGDEVLYGQIVDTNAAWLADFFFHQGLPLSRRNTVGDNLDDLVTILRERSQHADVLIVNGGLGPTSDDLSALAAATAKGEGLVLHEAWLKEMERYFHERGRVMAPSNRKQAELPASAEFINNPVGTACGFAVQLNRCLMFFTPGVPSEFKVMVEHEILPRLRERFSLPQPPVCLRLTTFGRSESDLAQSLDTLQLPPGVTMGYRSSMPIIELKLTGPASEQQAMEKLWLDVKRVAGQSVIFEGTEGLPAQISRELQNRQFSLTLSEQFTGGLLALQLSRAGAPLLACEVIPSQEETLAQTAHWITERRANHFAGLALAVSGFENEHLNFALATPDGTFALRVRFSTTRYSLAIRQEVCAMMALNMLRRWLNGQDIASEHGWIEVVESMTLSV | not soluble
MLKYNVRGENIEVTDALRSYVEKRLNKLEKYFELNQDVIAHVNLRVYRDHSAKVEVTIPLPYLVLRAEETTDDMYRSIDFVSEKLERQIRKYKTRVNRKSREKGLQDFFVEQPEEEKKPSEFDIVRNKRVSLKPMDPEEAILQMDMLEHDFFVFEDAETNGTSVVYRRNDGRYGLIETNELEHHHHHH | soluble
